{"source": "patent US20250170285A1", "about": "“RADIOLABELLED OLIGONUCLEOTIDES AND PROCESS FOR THEIR PREPARATION” (Hoffmann-La Roche Inc., priority 2018, published 2025)", "key": {"[1]": {"assay": "Tissue exposure study: liver concentration of unlabeled LNAs by LC-MS/MS", "details": "analyzed by LC-MS/MS, FIG. 1", "procedure": "(§1) Serial dilutions were made from stock solution (approx. 1 mg/mL in PCR grade water, the exact concentration of the stock solution will be quantified with the spectro-photometric device Nanodrop (Thermo Scientific) based on the extinction coefficient at 260 nm) to generate working solutions in water from approx. 100 ng/mL up to approx. 250000 ng/mL.\n(§2) Calibration standards and quality control samples (freshly prepared in plasma, 50 μL) were treated for protein denaturation with 150 μL of 4 M guanidine thiocyanate after addition of the internal standard. After vigorously mixing (20 min at 1600 rpm), 200 μL of a water/hexafluoroisopropanol/diisopropylethylamine solution (100:4:0.2, v/v/v) were added, followed by mixing (15 min at 1500 rpm). Then a clean-up step was performed by means of solid-phase-extraction cartridges (Waters, OASIS HLB 5 mg, 30 μm) after elution and evaporation to dryness (30-45 min at +40° C.) the samples were reconstituted in 200 μL of mobile phase (water/methanol/hexafluoroisopropanol/diisopropylethylamine (95/5/1/0.2, v/v/v/v)). After vortex mixing (10 min at 1500 rpm), an aliquot (20 μL) was injected into a LC-MS/MS system (50 μL loop).\n(§3) A Shimadzu 30ADXR pump was used, equipped with a Waters Acquity C18 column (50×2.1 mm) at 60° C. […]"}, "[2]": {"details": "in vivo", "procedure": "as §1, §2, §3"}, "[3]": {"assay": "Single dose PK experiment: liver concentration of tritium labeled LNAs by LSC", "type": "in vivo", "details": "single dose 1 mg/kg; liver 24, 72 and 336 h after dosing; radioactivity by LSC, FIG. 2", "description": "A single dose PK experiment with Example 3.b ([^3H]-compound 2 based on conjugate 4) and Example 3.c ([^3H]-compound 3 based on conjugate 7) at 1 mg/kg was done. LNAs were analyzed in liver 24, 72 and 336 h after dosing. The study will confirm the feasibility of oligonucleotides with radioactive conjugation.\nA Packard Tri-carb 3100TR was used for LSC analysis.\nIn FIG. 2 the liver concentration of the tritium labeled compounds of Example 3.b (dotted line) and Example 3.c (continuous line) have been analyzed by LSC."}}, "note": "Read-outs that look alike come from different tables or passages of the source."}
{"substance": "5′-G*A*G*t*t*a*c*t*t*g*c*c*a*A*C*T*-3′ (GAGTTACTTGCCAACT; all phosphorothioate, sugars by position and methylation of C not given here; further chemistry not fully specified) [LNA study compound A]", "values": [{"measurement": "liver concentration (liver uptake)", "setting": "[1]", "result": "lower level of uptake"}]}
{"substance": "5′-GN2-C6-ca G*A*G*t*t*a*c*t*t*g*c*c*a*A*C*T*-3′ (CAGAGTTACTTGCCAACT; 5'-GalNAc2-C6 conjugate, LNA and phosphorothioate, case key not given here, further chemistry not given here) [GalNAc LNA study compound A]", "values": [{"measurement": "liver concentration (liver uptake)", "setting": "[2]", "result": "high initial uptake in the liver plasma and a normal decrease over the time"}]}
{"substance": "5′-GN2-C6-caG*A*G*t*t*a*c*t*t*g*c*c*a*A*C*T*-C6SH-[^3H]-NEM [Example 3.b]", "values": [{"measurement": "liver concentration (liver uptake)", "setting": "[3]", "result": "equivalent liver uptake as a therapeutic GalNAc LNA"}]}
